Source: the supplement of paper PMC11246515
± gives the standard deviation of the averaged measurements.

Assay: total protein half-life in vivo (active degradation + dilution); higher = more stable protein
[1] = E. coli NCM3722 delta-clpP delta-lon delta-hslV, growth: N-lim chemostat, doubling time 6 h
[2] = E. coli NCM3722 delta-clpP, growth: N-lim chemostat, doubling time 6 h
[3] = E. coli NCM3722 delta-hslV, growth: N-lim chemostat, doubling time 6 h
[4] = E. coli NCM3722 delta-lon, growth: N-lim chemostat, doubling time 6 h
[5] = E. coli NCM3722 delta-smpB, growth: N-lim chemostat, doubling time 6 h
[6] = wild type E. coli NCM3722, growth: C-lim chemostat, doubling time 3 h
[7] = wild type E. coli NCM3722, growth: C-lim chemostat, doubling time 6 h
[8] = wild type E. coli NCM3722, growth: C-lim chemostat, doubling time 12 h
[9] = wild type E. coli NCM3722, growth: N-lim chemostat, doubling time 6 h
[10] = wild type E. coli NCM3722, growth: N-lim chemostat, doubling time 12 h
[11] = wild type E. coli NCM3722, growth: P-lim chemostat, doubling time 6 h
[12] = wild type E. coli NCM3722, growth: P-lim chemostat, doubling time 12 h

Sequence | total protein half-life in vivo [1] [h] | total protein half-life in vivo [2] [h] | total protein half-life in vivo [3] [h] | total protein half-life in vivo [4] [h] | total protein half-life in vivo [5] [h] | total protein half-life in vivo [6] [h] | total protein half-life in vivo [7] [h] | total protein half-life in vivo [8] [h] | total protein half-life in vivo [9] [h] | total protein half-life in vivo [10] [h] | total protein half-life in vivo [11] [h] | total protein half-life in vivo [12] [h]
MSQNNPLRALLDKQDILLLDGAMATELEARGCNLADSLWSAKVLVENPELIREVHLDYYRAGAQCAITASYQATPAGFAARGLDEAQSKALIGKSVELARKAREAYLAENPQAGTLLVAGSVGPYGAYLADGSEYRGDYHCSVEAFQAFHRPRVEALLDAGADLLACETLPNFSEIEALAELLTAYPRARAWFSFTLRDSEHLSDGTPLRDVVALLAGYPQVVALGINCIALENTTAALQHLHGLTVLPLVVYPNSGEHYDAVSKTWHHHGEHCAQLADYLPQWQAAGARLIGGCCRTTPADIAALKARS | 6.94 ± 1.2 | 4.714 ± 0.0092 | 4.45 ± 0.15 | 4.95 ± 0.14 | 4.6036 ± 0.0045 | 2.51 ± 0.23 | 5.009 ± 0.032 | 8.67 ± 1.6 | 5.31 ± 0.38 | 8.64 ± 0.12 | 6.15 ± 0.4 | 13 ± 0.82
MKLIITEDYQEMSRVAAHHLLGYMSKTRRVNLAITAGSTPKGMYEYLTTLVKGKPWYDNCYFYNFDEIPFRGKEGEGVTITNLRNLFFTPAGIKEENIQKLTIDNYREHDQKLAREGGLDLVVLGLGADGHFCGNLPNTTHFHEQTVEFPIQGEMVDIVAHGELGGDFSLVPDSYVTMGPKSIMAAKNLLIIVSGAGKAQALKNVLQGPVTEDVPASVLQLHPSLMVIADKAAAAELALG | 5.36 ± 0.6 | – | – | – | – | 2.47 | 3.24 | – | 2.68 | – | – | –
MVKKSEFERGDIVLVGFDPASGHEQQGAGRPALVLSVQAFNQLGMTLVAPITQGGNFARYAGFSVPLHCEEGDVHGVVLVNQVRMMDLHARLAKRIGLAADEVVEEALLRLQAVVE | – | – | – | – | – | – | 6.08 | – | – | 6.76 | – | 10.7
MITTRTARQCGQADYGWLQARYTFSFGHYFDPKLLGYASLRVLNQEVLAPGAAFQPRTYPKVDILNVILDGEAEYRDSEGNHVQASAGEALLLSTQPGVSYSEHNLSKDKPLTRMQLWLDACPQRENPLIQKLALNMGKQQLIASPEGAMGSLQLRQQVWLHHIVLDKGESANFQLHGPRAYLQSIHGKFHALTHHEEKAALTCGDGAFIRDEANITLVADSPLRALLIDLPV | 5.48 ± 0.071 | 4.42 ± 0.18 | 5.31 ± 0.28 | 4.33 ± 0.52 | 4.37 ± 0.26 | – | 4.71 | 9.966 ± 0.01 | 6.13 | 8.48 ± 1.3 | 4.66 ± 0.36 | 9.05 ± 0.27
MDIPVNAAKPGRRRYLTLVMIFITVVICYVDRANLAVASAHIQEEFGITKAEMGYVFSAFAWLYTLCQIPGGWFLDRVGSRVTYFIAIFGWSVATLFQGFATGLMSLIGLRAITGIFEAPAFPTNNRMVTSWFPEHERASAVGFYTSGQFVGLAFLTPLLIWIQEMLSWHWVFIVTGGIGIIWSLIWFKVYQPPRLTKGISKAELDYIRDGGGLVDGDAPVKKEARQPLTAKDWKLVFHRKLIGVYLGQFAVASTLWFFLTWFPNYLTQEKGITALKAGFMTTVPFLAAFVGVLLSGWVADLLVRKGFSLGFARKTPIICGLLISTCIMGANYTNDPMMIMCLMALAFFGNGFASITWSLVSSLAPMRLIGLTGGVFNFAGGLGGITVPLVVGYLAQGYGFAPALVYISAVALIGALSYILLVGDVKRVG [P0AA76] | – | – | – | – | – | – | 4.54 ± 0.49 | 7.29 ± 0.43 | – | – | – | –
MMIKTRFSRWLTFFTFAAAVALALPAKANTWPLPPAGSRLVGENKFHVVENDGGSLEAIAKKYNVGFLALLQANPGVDPYVPRAGSVLTIPLQTLLPDAPREGIVINIAELRLYYYPPGKNSVTVYPIGIGQLGGDTLTPTMVTTVSDKRANPTWTPTANIRARYKAQGIELPAVVPAGLDNPMGHHAIRLAAYGGVYLLHGTNADFGIGMRVSSGCIRLRDDDIKTLFSQVTPGTKVNIINTPIKVSAEPNGARLVEVHQPLSEKIDDDPQLLPITLNSAMQSFKDAAQTDAEVMQHVMDVRSGMPVDVRRHQVSPQTL | 5.73 | 4.84 | – | 6.23 ± 1.4 | 5.56 | 1.51 ± 0.55 | 2.85 ± 0.33 | 4.13 ± 0.68 | 6.17 | 10.5 | 5.17 | 3.45
MQYIKIHALDNVAVALADLAEGTEVSVDNQTVTLRQDVARGHKFALTDIAKGANVIKYGLPIGYALADIAAGVHVHAHNTRTNLSDLDQYRYQPDFQDLPAQAADREVQIYRRANGDVGVRNELWILPTVGCVNGIARQIQNRFLKETNNAEGTDGVFLFSHTYGCSQLGDDHINTRTMLQNMVRHPNAGAVLVIGLGCENNQVAAFRETLGDIDPERVHFMICQQQDDEIEAGIEHLHQLYNVMRNDKREPGKLSELKFGLECGGSDGLSGITANPMLGRFSDYVIANGGTTVLTEVPEMFGAEQLLMDHCRDEATFEKLVTMVNDFKQYFIAHDQPIYENPSPGNKAGGITTLEDKSLGCTQKAGSSVVVDVLRYGERLKTPGLNLLSAPGNDAVATSALAGAGCHMVLFSTGRGTPYGGFVPTVKIATNSELAAKKKHWIDFDAGQLIHGKAMPQLLEEFIDTIVEFANGKQTCNERNDFRELAIFKSGVTL | 4.17 ± 0.22 | 3.03 ± 0.15 | 2.65 ± 0.042 | 3.4 | 2.51 ± 0.36 | 2.61 ± 0.27 | 3.9 ± 0.23 | 4.43 ± 0.69 | 2.63 ± 0.13 | 3.74 ± 0.76 | 3.94 ± 1.4 | 6.84 ± 1.4
MSDSQTLVVKLGTSVLTGGSRRLNRAHIVELVRQCAQLHAAGHRIVIVTSGAIAAGREHLGYPELPATIASKQLLAAVGQSRLIQLWEQLFSIYGIHVGQMLLTRADMEDRERFLNARDTLRALLDNNIVPVINENDAVATAEIKVGDNDNLSALAAILAGADKLLLLTDQKGLYTADPRSNPQAELIKDVYGIDDALRAIAGDSVSGLGTGGMSTKLQAADVACRAGIDTIIAAGSKPGVIGDVMEGISVGTLFHAQATPLENRKRWIFGAPPAGEITVDEGATAAILERGSSLLPKGIKSVTGNFSRGEVIRICNLEGRDIAHGVSRYNSDALRRIAGHHSQEIDAILGYEYGPVAVHRDDMITR [P0A7B5] | 3.94 ± 0.49 | 3.94 ± 0.43 | 4.25 ± 0.076 | 5.654 ± 0.012 | 3.57 ± 0.05 | 2.98 ± 0.13 | 5.35 ± 0.17 | 9.09 ± 0.098 | 4.4 ± 0.31 | 9.48 ± 1.3 | 5.69 ± 0.71 | 11.7 ± 0.25
MKTFFRTVLFGSLMAVCANSYALSESEAEDMADLTAVFVFLKNDCGYQNLPNGQIRRALVFFAQQNQWDLSNYDTFDMKALGEDSYRDLSGIGIPVAKKCKALARDSLSLLAYVK [P0AA95] | 3.21 ± 0.054 | 3.39 ± 0.072 | 6.81 | 2.74 | 3.47 ± 0.12 | – | 3.61 ± 0.71 | 4.74 | 3.1 ± 0.091 | 5.56 ± 1.2 | 3.21 ± 0.85 | 5.86 ± 0.72
